Residue numbers refer to the chain shown, from its start. One block for each binder: values may come before it.
Assays:
[1] = target: Human CD38 on transiently transfected Expi293 cells (Origene SC321273) (human) (UniProt P28907); assay: flow cytometry, 10 ug/ml scFv-Fc, transfected Expi293 cells
[2] = target: Murine CD38 on transiently transfected Expi293 cells (Origene MC208001) (murine) (UniProt P56528); assay: as above
[3] = target: His-tagged cynomolgus monkey CD38 (ACRO Biosystems, CD8-05223 [sic]) (cynomolgus monkey) (UniProt Q5VAN0); assay: ELISA, 1 ug/ml scFv-Fc, coated His-tagged CD38
[4] = target: His-tagged human CD38 (ACRO Biosystems CD8-H5224) (human) (UniProt P28907); assay: ELISA, 1 ug/ml scFv-Fc, coated His-tagged CD38
[5] = target: His-tagged mouse CD38 (ACRO Biosystems CD8-M5223) (mouse) (UniProt P56528); assay: ELISA, 1 ug/ml scFv-Fc, coated His-tagged CD38

FACS percent gated [1]: 92.1%
FACS percent gated [2]: 1.46%
ELISA signal [3]: 1.46
ELISA signal [4]: 1.7
ELISA signal [5]: 0.044
B1: 40769p2.2.G3 scFv-Fc (scFv, part only; not given: Linker, domain order, Fc, V domains shown, not shown: another chain or arm of the molecule; a dimerising Fc or GST; small tags and cut ends)
VH: EVQLLESGGGLVQPGGSLRLSCTASGITFSRFNMFWVRQAPGKGLEFVASIRDDGSWTYYADSVKGQFTISRDNSKNTLYLQMNSLRAEDTAVYYCAKDYSSKDFIYHYVMDVWGQGTTVTVSS
VL: QSVLTQPPSASGTPGQRVTISCSGRNSNIGNNVVNWYQQLPGTAPKLLIYRNQERPSGVPDRFSGSKSGTSASLAISGLQSEDEADYYCASWDDSLNAWVFGRGTKLTVL

FACS percent gated [1]: 74.9%
ELISA signal [3]: 2.35
ELISA signal [4]: 2.42
ELISA signal [5]: 0.048
B2: 40769p2.1.C1 scFv-Fc (scFv, part only; not given: Linker, domain order, Fc, V domains shown, not shown: another chain or arm of the molecule; a dimerising Fc or GST; small tags and cut ends)
VH: EVQLLESGGGLVQPGGSLRLSCAASGFSFSDYWMNWVRQAPGKGLEWVSTISSGGNMIYYADSVKGRFTISRDNSKNTLYLRMNSLRAEDTAVYYCAKDNWNDYYGMDVWGQGTTVTVSS
VL: QSVLTQPPSASGTPGQRVTISCSGSSSNIRDNYVYWYQQVPGTAPKLLIYKDDQRPSGVPDRFSGSKSGSSASLAISGLQSEDEADYYCATWDGSLNARVFGGGTKLTVL

FACS percent gated [1]: 92.5%
FACS percent gated [2]: 1.43%
ELISA signal [3]: 1.47
ELISA signal [4]: 1.67
ELISA signal [5]: 0.045
B3: 40769p2.2.H4 scFv-Fc (scFv, part only; not given: Linker, domain order, Fc, V domains shown, not shown: another chain or arm of the molecule; a dimerising Fc or GST; small tags and cut ends)
VH: B2 VH with S28D, D31S, N56S, M57I, R67Q, R82Q
VL: B2 VL with L4P, S70T

FACS percent gated [1]: 75.4%
FACS percent gated [2]: 23.7%
ELISA signal [3]: 2.04
ELISA signal [4]: 2.04
ELISA signal [5]: 1.53
B4: 40769p2.1.E1 scFv-Fc (scFv, part only; not given: Linker, domain order, Fc, V domains shown, not shown: another chain or arm of the molecule; a dimerising Fc or GST; small tags and cut ends)
VH: EVQLLESGGGLIQPGGSLRLSCTASGFDFSSYGMHWVRQAPGKGLEWVAIISDSGGTTYYGDSVKGRFTISRDNSKSTLYLQMNSLRAEDTALYYCASYIMDVWGQGTTVTVSS
VL: QSVLTQPPSASGTPEQRVTISCSGSNSNVGDNAVYWYQQLPGTAPKLLFYGTNRRPSGVPDRFSGSKSGTSASLAISGLQSEDEADYYCAAWDDSLNAWVFGGGTKLTVL

FACS percent gated [1]: 77.1%
FACS percent gated [2]: 22.9%
ELISA signal [3]: 2.29
ELISA signal [4]: 2.01
ELISA signal [5]: 1.37
B5: 40769p2.1.H12 scFv-Fc (scFv, part only; not given: Linker, domain order, Fc, V domains shown, not shown: another chain or arm of the molecule; a dimerising Fc or GST; small tags and cut ends)
VH: B4 VH with A49G, G61A, S77N, T108I
VL: B4 VL with E15G, D31V, A33S, F49I, T52S, N53G, G65V, S95G

FACS percent gated [1]: 77%
FACS percent gated [2]: 42.4%
ELISA signal [3]: 2.31
ELISA signal [4]: 1.81
ELISA signal [5]: 2.1
B6: 40769p2.1.G4 scFv-Fc (scFv, part only; not given: Linker, domain order, Fc, V domains shown, not shown: another chain or arm of the molecule; a dimerising Fc or GST; small tags and cut ends)
VH: EVQLLESGGGLVQPGGSLRLSCAASGFTFTSHDMNWVRQAPGKGLEWVSTITTGGNTYYADSVKGRFTISRDNSKNTLYLQMTSLRAEDTAVYYCTKHYSMDVWGQGTTVTVSS
VL: B4 VL with E15G, N26T, G30V, D31F, T52K, N53S, R54Q, S95T, A98G

ELISA signal [5]: 0.044
B7: 40769p2.2.D3 scFv-Fc (scFv, V domains shown)
VH: B4 VH with A49G, G61A, S77N, T108I
VL: B4 VL with E15G, D31V, A33S, F49I, T52S, N53G, G65V, D94G, S95G

FACS percent gated [1]: 76.3%
FACS percent gated [2]: 3.13%
ELISA signal [3]: 2.1
ELISA signal [4]: 1.96
ELISA signal [5]: 0.045
B8: 40769p2.1.E5 scFv-Fc (scFv, part only; not given: Linker, domain order, Fc, V domains shown, not shown: another chain or arm of the molecule; a dimerising Fc or GST; small tags and cut ends)
VH: EVQLLESGGGLVQPGGSLRLSCTASAHIFKYNWMSWVRQAPGKGLEWVSSINSDGTITYYTDSVKGRFTISRDNSKNTLYLQMNSLRAEDTAVYYCAKDNWNDYAIDVWGQGTTVTVSS
VL: QSVLTQPPSASGTPGQRVTISCSGSRSDIRNNYVSWYQQLPGTAPKLLIYSNGQRPSGVPDRFSGSKSGTSASLAISGLQSEDEADYYCAIWDDSLNAWVFGGGTKLTVL

FACS percent gated [1]: 75.7%
FACS percent gated [2]: 1.99%
ELISA signal [3]: 2.16
ELISA signal [4]: 1.79
ELISA signal [5]: 0.046
B9: 40769p2.1.E8 scFv-Fc (scFv, part only; not given: Linker, domain order, Fc, V domains shown, not shown: another chain or arm of the molecule; a dimerising Fc or GST; small tags and cut ends)
VH: EVQLLESGGGLVQPGGSLRLSCTGFGFTFTDARMSWVRQAPGKGLEWVADISSYGDNTYYADSVKGRFTISRDNSANTLYVQMNSLRAEDTAVYYCAKRMEREVMTIKLDYHAMDVWGQGTTVTVSS
VL: QSVLTQTPSVSGTPGQRVTISCSGVFNIRNYVSWYQQLPGTAPKLLIFKDDQRPSGVPDRFSGSRSGTSASLAISGLQSEDEADYYCAAWDIFLNVWVFGGGTKLTVL

— patent US20220306762A1
